# In paper PMC11455607:
# Where two headings read alike, the source gives them in different places.
# B1: Ret4 20-mer biotinylated (dsDNA)
# DNA 1: CAGGAGCTTAGGAGGGGGAG
# DNA 2: CTCCCCCTCCTAAGCTCCTG
# B2: Ret4 21-mer (dsDNA)
# DNA 1: CCAGGAGCTTAGGAGGGGGAG
# DNA 2: CCTCCCCCTCCTAAGCTCCTG
# B3: NRE-Ret4 38-mer biotinylated (dsDNA)
# DNA 1: CCAGATGCTGATTCAGCCAGGAGCTTAGGAGGGGGAGG
# DNA 2: CCTCCCCCTCCTAAGCTCCTGGCTGAATCAGCATCTGG
# How the values were obtained:
# CRX HD (His) = CRX HD (His) (UniProt O43186 31-107); test: BLI
# Sequence of CRX HD (His) (O43186 31-107): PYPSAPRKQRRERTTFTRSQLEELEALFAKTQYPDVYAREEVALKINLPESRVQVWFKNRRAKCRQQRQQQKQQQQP
# CRX HD R41Q [1] = target: T1, CRX HD R41Q (UniProt O43186 31-107, R41Q); test: BLI
# T1 sequence (O43186 31-107 R41Q): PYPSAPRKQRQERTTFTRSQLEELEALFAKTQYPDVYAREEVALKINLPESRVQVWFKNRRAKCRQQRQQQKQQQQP
# CRX HD E42K [2] = target: T2, CRX HD E42K (UniProt O43186 31-107, E42K); test: BLI
# T2 sequence (O43186 31-107 E42K): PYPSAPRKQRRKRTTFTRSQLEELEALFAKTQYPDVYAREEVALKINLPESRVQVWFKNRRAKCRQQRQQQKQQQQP
# CRX HD R90W = CRX HD R90W (UniProt O43186 31-107, R90W); test: BLI
# Sequence of CRX HD R90W (O43186 31-107 R90W): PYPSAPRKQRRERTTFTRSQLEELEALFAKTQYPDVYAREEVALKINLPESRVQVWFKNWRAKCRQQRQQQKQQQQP
# CRX HD R41Q [3] = target: T1, CRX HD R41Q; test: SEC-MALS
# CRX HD E42K [4] = target: T2, CRX HD E42K; test: SEC-MALS
# Cy3-CRX HD = Cy3-CRX HD (UniProt O43186 31-107); test: smTIRFM
# Sequence of Cy3-CRX HD (O43186 31-107): as the sequence (O43186 31-107) above
# Cy3-CRX HD;NRL DBD [5] = target: T3, Cy3-CRX HD;NRL DBD (;, UniProt O43186;P54845 31-107;128-237, |); test: smTIRFM
# T3 sequence (O43186 31-107, chain 1 of 2): as the sequence (O43186 31-107) above
# T3 sequence (P54845 128-237, chain 2 of 2): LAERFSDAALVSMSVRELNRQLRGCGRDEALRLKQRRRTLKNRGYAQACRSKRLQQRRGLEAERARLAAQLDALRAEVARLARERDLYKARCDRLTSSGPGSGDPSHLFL
# Cy3-CRX HD;NRL DBD [6] = target: T3, Cy3-CRX HD;NRL DBD; test: smTIRFM; remark: listed apart in the source
binder,measurement,setting,value
B1,Kd,CRX HD (His),430 ± 30 nM
same,Kd,CRX HD R41Q [1],1250 ± 30 nM
same,Kd,CRX HD E42K [2],30 ± 10 nM
same,Kd,CRX HD R90W,900 ± 30 nM
B2,binding result,CRX HD R41Q [3],binds
same,binding result,CRX HD E42K [4],binds
B3,Kd,Cy3-CRX HD,55.1 nM
same,Kd,Cy3-CRX HD;NRL DBD [5],28 nM
same,Kd,Cy3-CRX HD;NRL DBD [6],39.6 nM
